Consider 15 molecules from doi:10.1101/211250 (bioRxiv, 2017).

The labels stand for the following.
B1: FITC-labeled p-1 phosphorylated MCC peptide (peptide)
peptide: HTNET[pS]L
modifications: also: FITC label (position not given here)
B2: FITC-labeled unphosphorylated RPS6KA2 peptide (RLTSTRL-coo-) (peptide)
peptide: RLTSTRL-OH
modifications: also: FITC label, position not given here
B3: FITC-labeled p-6 phosphorylated TANC1 peptide (peptide)
peptide: KR[pS]FIESNV
modifications: also: FITC label, position not given here
B4: unphosphorylated MCC peptide (RPHTNETSL-coo-) (peptide)
peptide: RPHTNETSL-OH
B5: unphosphorylated RPS6KA2 peptide (MKRLTSTRL-coo-) (peptide)
peptide: MKRLTSTRL-OH
B6: FITC-labelled phosphorylated RPS6KA1 peptide (S732, p-3) (peptide)
peptide: VRKLP[pS]TTL
modifications: also: FITC label, position not given here
B7: p-1 phosphorylated MCC peptide (RPHTNETpSL-coo-) (peptide)
peptide: RPHTNET[pS]L-OH
modifications: N-terminus assumed
SMILES: CC(C)C[C@H](NC(=O)[C@H](COP(=O)(O)O)NC(=O)[C@@H](NC(=O)[C@H](CCC(=O)O)NC(=O)[C@H](CC(N)=O)NC(=O)[C@@H](NC(=O)[C@H](Cc1c[nH]cn1)NC(=O)[C@@H]1CCCN1C(=O)[C@@H](N)CCCNC(=N)N)[C@@H](C)O)[C@@H](C)O)C(=O)O
B8: FITC-labeled p-3 phosphorylated RPS6KA2 peptide (peptide)
peptide: RLT[pS]TRL
modifications: also: FITC label (position not given here)
B9: p-3 phosphorylated RPS6KA2 peptide (MKRLTpSTRL-coo-) (peptide)
peptide: MKRLT[pS]TRL-OH
modifications: N-terminus assumed
SMILES: CSCC[C@H](N)C(=O)N[C@@H](CCCCN)C(=O)N[C@@H](CCCNC(=N)N)C(=O)N[C@@H](CC(C)C)C(=O)N[C@H](C(=O)N[C@@H](COP(=O)(O)O)C(=O)N[C@H](C(=O)N[C@@H](CCCNC(=N)N)C(=O)N[C@@H](CC(C)C)C(=O)O)[C@@H](C)O)[C@@H](C)O
B10: FITC-labeled unphosphorylated TANC1 peptide (KRSFIESNV-coo-) (peptide)
peptide: KRSFIESNV-OH
modifications: also: FITC label, position not given here
B11: Shank1 PDZ (domain or fragment)
chain: TVLLQKKDSEGFGFVLRGAKAQTPIEEFTPTPAFPALQYLESVDEGGVAWRAGLRMGDFLIEVNGQNVVKVGHRQVVNMIRQGGNTLMVKVVMVT
B12: FITC-labeled unphosphorylated MCC peptide (HTNETSL-coo-) (peptide)
peptide: HTNETSL-OH
modifications: also: FITC label, position not given here
B13: FITC-labelled unphosphorylated RPS6KA1 peptide (VRKLPSTTL-coo-) (peptide)
peptide: VRKLPSTTL-OH
modifications: also: FITC label, position not given here
B14: FITC-labeled phosphomimetic RPS6KA2 peptide (p-3 Ser to Glu) (peptide)
peptide: RLTETRL
modifications: also: FITC label, position not given here

Non-standard residues stand in square brackets, D forms with d. No end group written: not given here. pS = N[C@@H](COP(=O)(O)O)C(=O)O

The target in assay [1] is FITC-labeled phosphomimetic TANC1 peptide (p-6 Ser to Glu) (human) (UniProt Q9C0D5). Description: MST.
Assay [2] deals with FITC-labeled p-3 phosphorylated RPS6KA2 peptide (human). Description: MST.
For assay [3], the target named is FITC-labeled phosphomimetic RPS6KA2 peptide (p-3 Ser to Glu) (human) (UniProt Q15349). Put plainly: MST.
The target in assay [4] is FITC-labeled p-6 phosphorylated TANC1 peptide (human). Description: MST.
Assay [5] concerns the target FITC-labeled p-1 phosphorylated MCC peptide (human). Description: MST.
Assay [6] has as its target T1, Scribble PDZ1 (human, UniProt Q14160 719-829). Put plainly: MST.
Assay [7] has as its target T1, Scribble PDZ1. Description: ITC. (In general: ITC needs no label: the signal is the heat of the interaction.)
The next assay has as its target Scribble PDZ1 R762A (human, UniProt Q14160 719-829, R762A). Description: ITC.
Assay [8] concerns the target Scribble PDZ1 R762A/A743R (human, UniProt Q14160 719-829, R762A | A743R). Put plainly: ITC.
The next assay concerns the target Scribble PDZ1 R801A (human, UniProt Q14160 719-829, R801A). Put plainly: ITC.
In the next assay the target is Scribble PDZ1 K746A (human, UniProt Q14160 719-829, K746A). Description: ITC.
The target in assay [9] is B8. Description: MST.
For assay [10], the target named is B1. Put plainly: MST.

T1 sequence (Q14160 719-829): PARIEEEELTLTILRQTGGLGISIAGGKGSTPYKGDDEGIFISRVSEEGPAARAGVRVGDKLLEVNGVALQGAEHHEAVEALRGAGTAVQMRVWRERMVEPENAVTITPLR
Sequence of Scribble PDZ1 R762A/A743R (Q14160 719-829 A743R/R762A): as the sequence (Q14160 719-829) above, with A25R, R44A counted along it
Sequence of Scribble PDZ1 R762A (Q14160 719-829 R762A): as the sequence (Q14160 719-829) above, with R44A counted along it
Sequence of Scribble PDZ1 R801A (Q14160 719-829 R801A): as the sequence (Q14160 719-829) above, with R83A counted along it
Sequence of Scribble PDZ1 K746A (Q14160 719-829 K746A): as the sequence (Q14160 719-829) above, with K28A counted along it
Sequence of FITC-labeled phosphomimetic RPS6KA2 peptide (p-3 Ser to Glu) (human) (Q15349 whole entry, looked up, tested part not stated): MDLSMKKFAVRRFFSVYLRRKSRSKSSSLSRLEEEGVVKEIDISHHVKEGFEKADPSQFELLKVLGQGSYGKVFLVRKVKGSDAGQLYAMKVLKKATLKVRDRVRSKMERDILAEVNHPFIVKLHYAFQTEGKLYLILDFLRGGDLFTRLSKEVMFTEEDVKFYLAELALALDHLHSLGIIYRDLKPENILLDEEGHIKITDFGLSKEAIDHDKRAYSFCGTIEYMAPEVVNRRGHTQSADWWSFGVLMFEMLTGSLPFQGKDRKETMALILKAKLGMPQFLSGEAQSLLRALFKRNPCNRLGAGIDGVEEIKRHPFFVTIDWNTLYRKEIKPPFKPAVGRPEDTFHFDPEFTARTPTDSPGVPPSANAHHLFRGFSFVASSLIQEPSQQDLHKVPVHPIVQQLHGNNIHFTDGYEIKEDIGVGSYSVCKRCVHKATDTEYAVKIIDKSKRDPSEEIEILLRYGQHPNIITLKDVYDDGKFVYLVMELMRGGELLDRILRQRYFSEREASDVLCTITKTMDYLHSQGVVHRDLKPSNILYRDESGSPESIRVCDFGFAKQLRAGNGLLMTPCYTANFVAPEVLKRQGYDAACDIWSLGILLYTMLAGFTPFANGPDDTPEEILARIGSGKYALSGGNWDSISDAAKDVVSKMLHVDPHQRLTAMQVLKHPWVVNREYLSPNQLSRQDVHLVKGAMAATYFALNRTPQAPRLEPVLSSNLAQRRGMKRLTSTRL
Sequence of FITC-labeled phosphomimetic TANC1 peptide (p-6 Ser to Glu) (human) (Q9C0D5 whole entry, looked up, tested part not stated): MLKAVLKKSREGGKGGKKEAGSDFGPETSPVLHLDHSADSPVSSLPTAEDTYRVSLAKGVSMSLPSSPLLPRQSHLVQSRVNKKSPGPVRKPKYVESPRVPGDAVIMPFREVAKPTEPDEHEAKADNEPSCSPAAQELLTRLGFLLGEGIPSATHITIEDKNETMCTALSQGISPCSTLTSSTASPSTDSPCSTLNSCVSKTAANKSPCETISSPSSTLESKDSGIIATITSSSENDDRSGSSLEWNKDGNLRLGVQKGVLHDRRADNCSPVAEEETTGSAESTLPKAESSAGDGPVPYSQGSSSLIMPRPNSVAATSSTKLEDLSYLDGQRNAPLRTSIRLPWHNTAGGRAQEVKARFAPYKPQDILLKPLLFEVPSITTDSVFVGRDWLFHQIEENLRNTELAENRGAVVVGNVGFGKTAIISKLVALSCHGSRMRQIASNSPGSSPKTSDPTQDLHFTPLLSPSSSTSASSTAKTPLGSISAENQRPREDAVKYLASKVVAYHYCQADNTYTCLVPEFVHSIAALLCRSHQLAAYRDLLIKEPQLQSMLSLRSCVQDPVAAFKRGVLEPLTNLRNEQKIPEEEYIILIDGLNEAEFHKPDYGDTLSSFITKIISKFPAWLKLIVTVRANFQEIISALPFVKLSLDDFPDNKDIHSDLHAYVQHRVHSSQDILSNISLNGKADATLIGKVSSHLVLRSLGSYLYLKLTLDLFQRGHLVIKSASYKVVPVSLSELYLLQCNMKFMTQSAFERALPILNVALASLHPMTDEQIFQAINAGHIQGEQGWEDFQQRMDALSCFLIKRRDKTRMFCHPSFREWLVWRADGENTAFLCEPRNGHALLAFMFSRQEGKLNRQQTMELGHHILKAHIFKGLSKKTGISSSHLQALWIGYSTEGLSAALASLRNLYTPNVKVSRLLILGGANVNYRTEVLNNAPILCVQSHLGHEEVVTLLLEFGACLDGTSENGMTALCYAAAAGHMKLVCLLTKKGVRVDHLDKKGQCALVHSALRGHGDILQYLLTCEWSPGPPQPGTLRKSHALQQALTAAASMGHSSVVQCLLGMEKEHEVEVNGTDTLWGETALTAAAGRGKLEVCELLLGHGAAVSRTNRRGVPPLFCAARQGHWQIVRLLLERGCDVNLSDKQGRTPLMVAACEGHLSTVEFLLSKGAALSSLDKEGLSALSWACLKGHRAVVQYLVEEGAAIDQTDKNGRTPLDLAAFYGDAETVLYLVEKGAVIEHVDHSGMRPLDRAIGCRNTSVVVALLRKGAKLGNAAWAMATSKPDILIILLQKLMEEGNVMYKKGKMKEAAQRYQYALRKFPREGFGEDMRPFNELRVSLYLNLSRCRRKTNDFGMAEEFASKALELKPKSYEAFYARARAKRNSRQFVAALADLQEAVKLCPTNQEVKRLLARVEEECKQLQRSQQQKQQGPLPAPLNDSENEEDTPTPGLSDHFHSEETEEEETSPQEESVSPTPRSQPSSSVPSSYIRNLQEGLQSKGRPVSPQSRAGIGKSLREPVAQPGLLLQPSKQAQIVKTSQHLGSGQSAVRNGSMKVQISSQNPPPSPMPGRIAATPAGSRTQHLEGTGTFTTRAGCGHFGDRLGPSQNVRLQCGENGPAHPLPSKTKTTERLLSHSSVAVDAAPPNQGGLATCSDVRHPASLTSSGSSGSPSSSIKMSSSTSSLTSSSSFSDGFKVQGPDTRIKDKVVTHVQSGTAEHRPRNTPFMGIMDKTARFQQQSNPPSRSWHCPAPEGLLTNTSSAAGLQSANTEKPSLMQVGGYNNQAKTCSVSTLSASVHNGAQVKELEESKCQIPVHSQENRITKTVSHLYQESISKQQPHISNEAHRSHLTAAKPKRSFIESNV

Consider DLG1 PDZ2 (domain or fragment), for which the results for the fold lower affinity than for the unphosphorylated peptide in assay [1], in [4] and in assay [5] were 2.4 fold, 2.9 fold and 9 fold, respectively. Besides, the fold higher affinity than for the unphosphorylated peptide in [2] amounted to 1.3 fold; in [3], 7 fold.
Take B1: in the assay with Scribble PDZ1 [6], the binding result is given as “binds”.
Same read-out and setting: to B2 belongs “binds”; to B3, “binds”.
Turning to B4, the binding result (with Scribble PDZ1 [7]; with Scribble PDZ1 R762A; in assay [8]) was “binds” in each case.
For B5, the binding result (with Scribble PDZ1 R801A; with Scribble PDZ1 [7]; with Scribble PDZ1 K746A; in the assay with Scribble PDZ1 R762A; in assay [8]) was “binds” throughout.
Molecule B6 showed a dissociation constant Kd in the assay with Scribble PDZ1 [6] of 390 nM.
Regarding B7, the “fold lower KD than for the unphosphorylated peptide” value with Scribble PDZ1 [7] was 2 fold. Further, the binding result (in the assay with Scribble PDZ1 R762A; in assay [8]) was “binds” throughout.
In the case of B8, the binding result with Scribble PDZ1 [6] is “binds”.
Regarding B9, the binding result (with Scribble PDZ1 R801A; with Scribble PDZ1 K746A; in the assay with Scribble PDZ1 R762A; in [8]) was “binds” in each case. For the same molecule, in the assay with Scribble PDZ1 [7], the “fold lower KD than for the unphosphorylated peptide” value was 5 fold.
Turning to B10, the binding result with Scribble PDZ1 [6] is “binds”.
On to B11, for which the “fold lower affinity than for the unphosphorylated peptide” value was found to be 3.6 fold in [9] and 3 fold in assay [10].
Take B12: in the assay with Scribble PDZ1 [6], the binding result is “binds”.
For B13, the affinity with Scribble PDZ1 [6], expressed as Kd, was 1000 nM.
For B14, the binding result with Scribble PDZ1 [6] is listed as “binds”.

The Kd is a measure of binding affinity in units of concentration. The low end stands for higher affinity, the high end for lower affinity.
